Data published in US20160272683A1 (Novo Nordisk, published 2016).
Numbered stars: 1 amine (or outer) side, 2 acyl side, 3 side chain; on linkers, the order of the positions; unused ones are H or OH. * marks the point of attachment. C20 diacid = O=C(O)CCCCCCCCCCCCCCCCCCC(=O)*; C18 diacid = O=C(O)CCCCCCCCCCCCCCCCC(=O)*; γGlu = O=C(O)[C@H](CCC(=O)[*:2])N[*:1]

T1: human amylin receptor (human calcitonin receptor + human RAMP3) (human) (UniProt P30988)
T1 sequence (looked up) 1: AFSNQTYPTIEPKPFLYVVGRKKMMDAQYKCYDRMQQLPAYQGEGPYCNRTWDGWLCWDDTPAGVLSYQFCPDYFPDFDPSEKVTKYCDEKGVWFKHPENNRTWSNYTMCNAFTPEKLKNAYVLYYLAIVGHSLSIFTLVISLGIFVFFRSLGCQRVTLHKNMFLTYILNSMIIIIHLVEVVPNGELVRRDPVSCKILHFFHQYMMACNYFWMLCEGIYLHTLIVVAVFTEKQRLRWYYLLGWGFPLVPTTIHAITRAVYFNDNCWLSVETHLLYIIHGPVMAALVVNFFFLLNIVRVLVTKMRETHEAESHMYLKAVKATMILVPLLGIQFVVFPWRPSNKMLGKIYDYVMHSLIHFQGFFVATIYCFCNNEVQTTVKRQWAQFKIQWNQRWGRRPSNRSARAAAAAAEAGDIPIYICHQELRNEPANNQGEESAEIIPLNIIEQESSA
T1 sequence (looked up) 2: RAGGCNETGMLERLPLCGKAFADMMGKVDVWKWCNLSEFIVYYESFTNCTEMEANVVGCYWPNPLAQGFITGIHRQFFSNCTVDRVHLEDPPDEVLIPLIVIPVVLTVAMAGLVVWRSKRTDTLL

B1: [N-terminal(C20 diacid-gGlu), des1, 9S, 21S, 23Y, 30S, 31G, 33Y]mimylin (peptide)
peptide: {C20 diacid-γGlu}-ASELSTASLGRLSAELHELSTYPRTETGSGSY-NH2
SMILES: CC(C)C[C@H](NC(=O)[C@H](CO)NC(=O)[C@H](C)NC(=O)[C@@H](NC(=O)[C@H](CO)NC(=O)[C@H](CC(C)C)NC(=O)[C@H](CCC(=O)O)NC(=O)[C@H](CO)NC(=O)[C@H](C)NC(=O)CC[C@H](NC(=O)CCCCCCCCCCCCCCCCCCC(=O)O)C(=O)O)[C@@H](C)O)C(=O)NCC(=O)N[C@@H](CCCNC(=N)N)C(=O)N[C@@H](CC(C)C)C(=O)N[C@@H](CO)C(=O)N[C@@H](C)C(=O)N[C@@H](CCC(=O)O)C(=O)N[C@@H](CC(C)C)C(=O)N[C@@H](Cc1c[nH]cn1)C(=O)N[C@@H](CCC(=O)O)C(=O)N[C@@H](CC(C)C)C(=O)N[C@@H](CO)C(=O)N[C@H](C(=O)N[C@@H](Cc1ccc(O)cc1)C(=O)N1CCC[C@H]1C(=O)N[C@@H](CCCNC(=N)N)C(=O)N[C@H](C(=O)N[C@@H](CCC(=O)O)C(=O)N[C@H](C(=O)NCC(=O)N[C@@H](CO)C(=O)NCC(=O)N[C@@H](CO)C(=O)N[C@@H](Cc1ccc(O)cc1)C(N)=O)[C@@H](C)O)[C@@H](C)O)[C@@H](C)O
B2: [N-terminal(C18 diacid-gGlu), des1, 6T, 9V, 14T, 21E, 30T, 31G, 32T]mimylin (peptide)
peptide: {C18 diacid-γGlu}-ASELTTAVLGRLTAELHELETLPRTETGTGTP-NH2
SMILES: CC(C)C[C@H](NC(=O)[C@H](CCC(=O)O)NC(=O)[C@H](C)NC(=O)[C@@H](NC(=O)[C@H](CC(C)C)NC(=O)[C@H](CCCNC(=N)N)NC(=O)CNC(=O)[C@H](CC(C)C)NC(=O)[C@@H](NC(=O)[C@H](C)NC(=O)[C@@H](NC(=O)[C@@H](NC(=O)[C@H](CC(C)C)NC(=O)[C@H](CCC(=O)O)NC(=O)[C@H](CO)NC(=O)[C@H](C)NC(=O)CC[C@H](NC(=O)CCCCCCCCCCCCCCCCC(=O)O)C(=O)O)[C@@H](C)O)[C@@H](C)O)C(C)C)[C@@H](C)O)C(=O)N[C@@H](Cc1c[nH]cn1)C(=O)N[C@@H](CCC(=O)O)C(=O)N[C@@H](CC(C)C)C(=O)N[C@@H](CCC(=O)O)C(=O)N[C@H](C(=O)N[C@@H](CC(C)C)C(=O)N1CCC[C@H]1C(=O)N[C@@H](CCCNC(=N)N)C(=O)N[C@H](C(=O)N[C@@H](CCC(=O)O)C(=O)N[C@H](C(=O)NCC(=O)N[C@H](C(=O)NCC(=O)N[C@H](C(=O)N1CCC[C@H]1C(N)=O)[C@@H](C)O)[C@@H](C)O)[C@@H](C)O)[C@@H](C)O)[C@@H](C)O
B3: [N-terminal(C20 diacid-gGlu), des1, 9V, 15Q, 21Q, 23Y, 30S, 31G, 32T, 33Y]mimylin (peptide)
peptide: {C20 diacid-γGlu}-ASELSTAVLGRLSQELHELQTYPRTETGSGTY-NH2
SMILES: CC(C)C[C@H](NC(=O)[C@H](CCCNC(=N)N)NC(=O)CNC(=O)[C@H](CC(C)C)NC(=O)[C@@H](NC(=O)[C@H](C)NC(=O)[C@@H](NC(=O)[C@H](CO)NC(=O)[C@H](CC(C)C)NC(=O)[C@H](CCC(=O)O)NC(=O)[C@H](CO)NC(=O)[C@H](C)NC(=O)CC[C@H](NC(=O)CCCCCCCCCCCCCCCCCCC(=O)O)C(=O)O)[C@@H](C)O)C(C)C)C(=O)N[C@@H](CO)C(=O)N[C@@H](CCC(N)=O)C(=O)N[C@@H](CCC(=O)O)C(=O)N[C@@H](CC(C)C)C(=O)N[C@@H](Cc1c[nH]cn1)C(=O)N[C@@H](CCC(=O)O)C(=O)N[C@@H](CC(C)C)C(=O)N[C@@H](CCC(N)=O)C(=O)N[C@H](C(=O)N[C@@H](Cc1ccc(O)cc1)C(=O)N1CCC[C@H]1C(=O)N[C@@H](CCCNC(=N)N)C(=O)N[C@H](C(=O)N[C@@H](CCC(=O)O)C(=O)N[C@H](C(=O)NCC(=O)N[C@@H](CO)C(=O)NCC(=O)N[C@H](C(=O)N[C@@H](Cc1ccc(O)cc1)C(N)=O)[C@@H](C)O)[C@@H](C)O)[C@@H](C)O)[C@@H](C)O
B4: [N-terminal(C20 diacid-gGlu), des1, 4G, 15Q, 21Q, 23Y, 25H, 30S, 31G, 32T, 33Y]mimylin (peptide)
peptide: {C20 diacid-γGlu}-ASGLSTAALGRLSQELHELQTYPHTETGSGTY-NH2
SMILES: CC(C)C[C@H](NC(=O)CNC(=O)[C@H](CO)NC(=O)[C@H](C)NC(=O)CC[C@H](NC(=O)CCCCCCCCCCCCCCCCCCC(=O)O)C(=O)O)C(=O)N[C@@H](CO)C(=O)N[C@H](C(=O)N[C@@H](C)C(=O)N[C@@H](C)C(=O)N[C@@H](CC(C)C)C(=O)NCC(=O)N[C@@H](CCCNC(=N)N)C(=O)N[C@@H](CC(C)C)C(=O)N[C@@H](CO)C(=O)N[C@@H](CCC(N)=O)C(=O)N[C@@H](CCC(=O)O)C(=O)N[C@@H](CC(C)C)C(=O)N[C@@H](Cc1c[nH]cn1)C(=O)N[C@@H](CCC(=O)O)C(=O)N[C@@H](CC(C)C)C(=O)N[C@@H](CCC(N)=O)C(=O)N[C@H](C(=O)N[C@@H](Cc1ccc(O)cc1)C(=O)N1CCC[C@H]1C(=O)N[C@@H](Cc1c[nH]cn1)C(=O)N[C@H](C(=O)N[C@@H](CCC(=O)O)C(=O)N[C@H](C(=O)NCC(=O)N[C@@H](CO)C(=O)NCC(=O)N[C@H](C(=O)N[C@@H](Cc1ccc(O)cc1)C(N)=O)[C@@H](C)O)[C@@H](C)O)[C@@H](C)O)[C@@H](C)O)[C@@H](C)O
B5: [N-terminal(C20 diacid-gGlu), des1, 4G, 8L, 9V, 15Q, 21Q, 23Y, 30S, 31Q, 32T, 33Y]mimylin (peptide)
peptide: {C20 diacid-γGlu}-ASGLSTLVLGRLSQELHELQTYPRTETGSQTY-NH2
SMILES: CC(C)C[C@H](NC(=O)CNC(=O)[C@H](CO)NC(=O)[C@H](C)NC(=O)CC[C@H](NC(=O)CCCCCCCCCCCCCCCCCCC(=O)O)C(=O)O)C(=O)N[C@@H](CO)C(=O)N[C@H](C(=O)N[C@@H](CC(C)C)C(=O)N[C@H](C(=O)N[C@@H](CC(C)C)C(=O)NCC(=O)N[C@@H](CCCNC(=N)N)C(=O)N[C@@H](CC(C)C)C(=O)N[C@@H](CO)C(=O)N[C@@H](CCC(N)=O)C(=O)N[C@@H](CCC(=O)O)C(=O)N[C@@H](CC(C)C)C(=O)N[C@@H](Cc1c[nH]cn1)C(=O)N[C@@H](CCC(=O)O)C(=O)N[C@@H](CC(C)C)C(=O)N[C@@H](CCC(N)=O)C(=O)N[C@H](C(=O)N[C@@H](Cc1ccc(O)cc1)C(=O)N1CCC[C@H]1C(=O)N[C@@H](CCCNC(=N)N)C(=O)N[C@H](C(=O)N[C@@H](CCC(=O)O)C(=O)N[C@H](C(=O)NCC(=O)N[C@@H](CO)C(=O)N[C@@H](CCC(N)=O)C(=O)N[C@H](C(=O)N[C@@H](Cc1ccc(O)cc1)C(N)=O)[C@@H](C)O)[C@@H](C)O)[C@@H](C)O)[C@@H](C)O)C(C)C)[C@@H](C)O
B6: [N-terminal(C20 diacid-gGlu), des1, 4G, 9T, 15Q, 21Q, 23Y, 25P, 30S, 31G, 32T, 33Y]mimylin (peptide)
peptide: {C20 diacid-γGlu}-ASGLSTATLGRLSQELHELQTYPPTETGSGTY-NH2
SMILES: CC(C)C[C@H](NC(=O)CNC(=O)[C@H](CO)NC(=O)[C@H](C)NC(=O)CC[C@H](NC(=O)CCCCCCCCCCCCCCCCCCC(=O)O)C(=O)O)C(=O)N[C@@H](CO)C(=O)N[C@H](C(=O)N[C@@H](C)C(=O)N[C@H](C(=O)N[C@@H](CC(C)C)C(=O)NCC(=O)N[C@@H](CCCNC(=N)N)C(=O)N[C@@H](CC(C)C)C(=O)N[C@@H](CO)C(=O)N[C@@H](CCC(N)=O)C(=O)N[C@@H](CCC(=O)O)C(=O)N[C@@H](CC(C)C)C(=O)N[C@@H](Cc1c[nH]cn1)C(=O)N[C@@H](CCC(=O)O)C(=O)N[C@@H](CC(C)C)C(=O)N[C@@H](CCC(N)=O)C(=O)N[C@H](C(=O)N[C@@H](Cc1ccc(O)cc1)C(=O)N1CCC[C@H]1C(=O)N1CCC[C@H]1C(=O)N[C@H](C(=O)N[C@@H](CCC(=O)O)C(=O)N[C@H](C(=O)NCC(=O)N[C@@H](CO)C(=O)NCC(=O)N[C@H](C(=O)N[C@@H](Cc1ccc(O)cc1)C(N)=O)[C@@H](C)O)[C@@H](C)O)[C@@H](C)O)[C@@H](C)O)[C@@H](C)O)[C@@H](C)O
B7: [N-terminal(C20 diacid-gGlu), des1, 4Q, 9V, 15Q, 16R, 19R, 21Q, 23Y, 27Q, 30S, 31Q, 32T, 33Y]mimylin (peptide)
peptide: {C20 diacid-γGlu}-ASQLSTAVLGRLSQRLHRLQTYPRTQTGSQTY-NH2
SMILES: CC(C)C[C@H](NC(=O)[C@H](CCCNC(=N)N)NC(=O)CNC(=O)[C@H](CC(C)C)NC(=O)[C@@H](NC(=O)[C@H](C)NC(=O)[C@@H](NC(=O)[C@H](CO)NC(=O)[C@H](CC(C)C)NC(=O)[C@H](CCC(N)=O)NC(=O)[C@H](CO)NC(=O)[C@H](C)NC(=O)CC[C@H](NC(=O)CCCCCCCCCCCCCCCCCCC(=O)O)C(=O)O)[C@@H](C)O)C(C)C)C(=O)N[C@@H](CO)C(=O)N[C@@H](CCC(N)=O)C(=O)N[C@@H](CCCNC(=N)N)C(=O)N[C@@H](CC(C)C)C(=O)N[C@@H](Cc1c[nH]cn1)C(=O)N[C@@H](CCCNC(=N)N)C(=O)N[C@@H](CC(C)C)C(=O)N[C@@H](CCC(N)=O)C(=O)N[C@H](C(=O)N[C@@H](Cc1ccc(O)cc1)C(=O)N1CCC[C@H]1C(=O)N[C@@H](CCCNC(=N)N)C(=O)N[C@H](C(=O)N[C@@H](CCC(N)=O)C(=O)N[C@H](C(=O)NCC(=O)N[C@@H](CO)C(=O)N[C@@H](CCC(N)=O)C(=O)N[C@H](C(=O)N[C@@H](Cc1ccc(O)cc1)C(N)=O)[C@@H](C)O)[C@@H](C)O)[C@@H](C)O)[C@@H](C)O

The binders below were run against T1, human amylin receptor (human calcitonin receptor + human RAMP3) (human) (assay: whole-cell competition vs 125I-rat amylin (Assay Va)).
For B1, the IC50 was 3.17 nM. For B2, the IC50 was 22.9 nM. In the case of B3, the IC50 is reported as 0.278 nM. For B4, the IC50 was 0.142 nM. For B5, the IC50 was 1.48 nM. Work on B6 yielded an IC50 of 0.116 nM. B7 gave an IC50 of 3.7 nM.

Each binder was assayed against rat calcitonin receptor (rat) (UniProt P32214) (assay: SPA competition vs 125I-calcitonin, membranes with rat CTR (Assay VIII)).
B1 gave an IC50 of 0.062 nM. With B2 the IC50 was 0.072 nM. Work on B3 yielded an IC50 of 0.021 nM. Work on B4 yielded an IC50 of 0.031 nM. For B5, the IC50 was 0.031 nM. In the case of B6, the IC50 is reported as 0.028 nM. For B7, the IC50 was 0.069 nM.

What follows are binders tested against rat amylin receptor (rat calcitonin receptor with rat RAMP 3) (rat) (UniProt P32214) (assay: SPA competition vs 125I-rat amylin, membranes with rat CTR + rat RAMP3 (Assay VI)).
Work on B1 yielded an IC50 of 0.046 nM. In the case of B2, the IC50 is reported as 0.162 nM. B3 gave an IC50 of 0.146 nM. B4 showed an IC50 of 0.026 nM. In the case of B5, the IC50 is reported as 0.091 nM. B6 showed an IC50 of 0.098 nM. For B7, the IC50 was 1.16 nM.
